# Values of other authors in patent US20230129812A1, “COMPOSITIONS AND METHODS FOR TREATING PULMONARY HYPERTENSION” (Acceleron Pharma Inc., priority 2020, published 2023).
# Key:
# [1] = target: T1, GDF11 (Homo sapiens, UniProt O95390); design: key: *: No observed binding; −−: <⅕ WT binding; −: ~½ WT binding; +: WT; ++: <2x increased binding; +++: ~5x increased binding; ++++: ~10x increased binding; +++++: ~40x increased binding; conditions: Table 11, reproduced from WO2006/012627; cited from earlier work
# T1 sequence (O95390 299-407): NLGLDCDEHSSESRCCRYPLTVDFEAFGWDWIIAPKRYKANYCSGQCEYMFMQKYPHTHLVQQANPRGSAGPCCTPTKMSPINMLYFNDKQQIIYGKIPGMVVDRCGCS
# [2] = target: T2, ActA (Homo sapiens, UniProt P08476); design: key to ActA binding relative to WT: *: No observed binding; −−: <⅕ WT binding; −: ~½ WT binding; +: WT; ++: <2x increased binding; +++: ~5x increased binding; ++++: ~10x increased binding; +++++: ~40x increased binding; conditions: cited from earlier work; for ActA binding relative to WT: Table 11, reproduced from WO2006/012627; for ratio of activin A (ActA) binding to GDF11 binding, relative to the wild-type K74 molecule: WO2006/012627
# T2 sequence (P08476 311-426): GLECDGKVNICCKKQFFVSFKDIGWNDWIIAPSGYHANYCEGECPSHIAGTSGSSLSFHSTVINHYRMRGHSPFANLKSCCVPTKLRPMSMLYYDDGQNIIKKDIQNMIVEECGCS
Molecule,GDF11 binding relative to WT [1],ActA binding relative to WT [2],"ratio of activin A (ActA) binding to GDF11 binding, relative to the wild-type K74 molecule [2]"
"+15tail: soluble ActRIIB-Fc variant with the 15 amino acid tail, as reported in WO2006/012627 (protein, left off: a dimerising Fc or GST) SGRGEAETRECIYYNANWELERTNQSGLERCEGEQDKRLHCYASWANSSGTIELVKKGCWLDDFNCYDRQECVATEENPQVYFCCCEGNFCNERFTHLPEAGGPEVTYEPPPTAPT",(++++) (~10x increased binding),(+++) (~5x increased binding),
"K74Y: soluble ActRIIB-Fc variant, as reported in WO2006/012627 (protein, left off: a dimerising Fc or GST) SGRGEAETRECIYYNANWELERTNQSGLERCEGEQDKRLHCYASWANSSGTIELVYKGCWLDDFNCYDRQECVATEENPQVYFCCCEGNFCNERFTHLPEA",−− (<⅕ WT binding),*,decrease
"L79A: soluble ActRIIB-Fc variant, as reported in WO2006/012627 (protein, left off: a dimerising Fc or GST) SGRGEAETRECIYYNANWELERTNQSGLERCEGEQDKRLHCYASWANSSGTIELVKKGCWADDFNCYDRQECVATEENPQVYFCCCEGNFCNERFTHLPEA",*,+,
"K74I: soluble ActRIIB-Fc variant, as reported in WO2006/012627 (protein, left off: a dimerising Fc or GST) SGRGEAETRECIYYNANWELERTNQSGLERCEGEQDKRLHCYASWANSSGTIELVIKGCWLDDFNCYDRQECVATEENPQVYFCCCEGNFCNERFTHLPEA",−− (<⅕ WT binding),*,decrease
"D54A: soluble ActRIIB-Fc variant, as reported in WO2006/012627 (protein, left off: a dimerising Fc or GST) SGRGEAETRECIYYNANWELERTNQSGLERCEGEQAKRLHCYASWANSSGTIELVKKGCWLDDFNCYDRQECVATEENPQVYFCCCEGNFCNERFTHLPEA",*,− (~½ WT binding),
"D80I: soluble ActRIIB-Fc variant, as reported in WO2006/012627 (protein, left off: a dimerising Fc or GST) SGRGEAETRECIYYNANWELERTNQSGLERCEGEQDKRLHCYASWANSSGTIELVKKGCWLIDFNCYDRQECVATEENPQVYFCCCEGNFCNERFTHLPEA",−− (<⅕ WT binding),*,decrease
"R56A: soluble ActRIIB-Fc variant, as reported in WO2006/012627 (protein, left off: a dimerising Fc or GST) SGRGEAETRECIYYNANWELERTNQSGLERCEGEQDKALHCYASWANSSGTIELVKKGCWLDDFNCYDRQECVATEENPQVYFCCCEGNFCNERFTHLPEA",*,*,
"D80A: soluble ActRIIB-Fc variant, as reported in WO2006/012627 (protein, left off: a dimerising Fc or GST) SGRGEAETRECIYYNANWELERTNQSGLERCEGEQDKRLHCYASWANSSGTIELVKKGCWLADFNCYDRQECVATEENPQVYFCCCEGNFCNERFTHLPEA",*,*,
"WT (64R): soluble ActRIIB-Fc, wild type with 64R, as reported in WO2006/012627 (protein, left off: a dimerising Fc or GST) SGRGEAETRECIYYNANWELERTNQSGLERCEGEQDKRLHCYASWRNSSGTIELVKKGCWLDDFNCYDRQECVATEENPQVYFCCCEGNFCNERFTHLPEA",(+++) (~5x increased binding),,
"E37A: soluble ActRIIB-Fc variant, as reported in WO2006/012627 (protein, left off: a dimerising Fc or GST) SGRGEAETRECIYYNANWALERTNQSGLERCEGEQDKRLHCYASWANSSGTIELVKKGCWLDDFNCYDRQECVATEENPQVYFCCCEGNFCNERFTHLPEA",*,*,
"K55A: soluble ActRIIB-Fc variant, as reported in WO2006/012627 (protein, left off: a dimerising Fc or GST) SGRGEAETRECIYYNANWELERTNQSGLERCEGEQDARLHCYASWANSSGTIELVKKGCWLDDFNCYDRQECVATEENPQVYFCCCEGNFCNERFTHLPEA",*,++ (<2x increased binding),
"D80R: soluble ActRIIB-Fc variant, as reported in WO2006/012627 (protein, left off: a dimerising Fc or GST) SGRGEAETRECIYYNANWELERTNQSGLERCEGEQDKRLHCYASWANSSGTIELVKKGCWLRDFNCYDRQECVATEENPQVYFCCCEGNFCNERFTHLPEA",*,*,
"K74F: soluble ActRIIB-Fc variant, as reported in WO2006/012627 (protein, left off: a dimerising Fc or GST) SGRGEAETRECIYYNANWELERTNQSGLERCEGEQDKRLHCYASWANSSGTIELVFKGCWLDDFNCYDRQECVATEENPQVYFCCCEGNFCNERFTHLPEA",−− (<⅕ WT binding),*,decrease
"D80K: soluble ActRIIB-Fc variant, as reported in WO2006/012627 (protein, left off: a dimerising Fc or GST) SGRGEAETRECIYYNANWELERTNQSGLERCEGEQDKRLHCYASWANSSGTIELVKKGCWLKDFNCYDRQECVATEENPQVYFCCCEGNFCNERFTHLPEA",*,*,
"K74A: soluble ActRIIB-Fc variant, as reported in WO2006/012627 (protein, left off: a dimerising Fc or GST) SGRGEAETRECIYYNANWELERTNQSGLERCEGEQDKRLHCYASWANSSGTIELVAKGCWLDDFNCYDRQECVATEENPQVYFCCCEGNFCNERFTHLPEA",,+++++ (~40x increased binding),
"D80F: soluble ActRIIB-Fc variant, as reported in WO2006/012627 (protein, left off: a dimerising Fc or GST) SGRGEAETRECIYYNANWELERTNQSGLERCEGEQDKRLHCYASWANSSGTIELVKKGCWLFDFNCYDRQECVATEENPQVYFCCCEGNFCNERFTHLPEA",*,*,
"R40A: soluble ActRIIB-Fc variant, as reported in WO2006/012627 (protein, left off: a dimerising Fc or GST) SGRGEAETRECIYYNANWELEATNQSGLERCEGEQDKRLHCYASWANSSGTIELVKKGCWLDDFNCYDRQECVATEENPQVYFCCCEGNFCNERFTHLPEA",− (~½ WT binding),− (~½ WT binding),
"W78A: soluble ActRIIB-Fc variant, as reported in WO2006/012627 (protein, left off: a dimerising Fc or GST) SGRGEAETRECIYYNANWELERTNQSGLERCEGEQDKRLHCYASWANSSGTIELVKKGCALDDFNCYDRQECVATEENPQVYFCCCEGNFCNERFTHLPEA",*,*,
